Measured values from publication PMC7195432, “MD2 activation by direct AGE interaction drives inflammatory diabetic cardiomyopathy” (Nature Communications, 2020).

Target: T1, glucose-derived AGE-modified bovine serum albumin (AGE-BSA) (bovine, UniProt P02769 25-607, advanced glycation end product (AGE) modification, glucose-derived, glycolaldehyde-mediated; the modified residues are not stated)
T1 construct: bovine serum albumin, chemically AGE-modified; A heterogeneous glycated preparation; also called AGE-modified BSA; glucose-derived, glycolaldehyde-mediated AGE-BSA; source: bought: BioVision Incorporated (Cat # 2223), purity >98%
Assay: ITC; Nano-ITC, 25 °C, proteins in ddH2O; AGE-BSA (1 μM) in the cell, MD2 protein solution (5 μM) in the syringe, 20 injections of 2.5 μL; independent model
Conditions: both partners purified

T1 sequence (P02769 25-607): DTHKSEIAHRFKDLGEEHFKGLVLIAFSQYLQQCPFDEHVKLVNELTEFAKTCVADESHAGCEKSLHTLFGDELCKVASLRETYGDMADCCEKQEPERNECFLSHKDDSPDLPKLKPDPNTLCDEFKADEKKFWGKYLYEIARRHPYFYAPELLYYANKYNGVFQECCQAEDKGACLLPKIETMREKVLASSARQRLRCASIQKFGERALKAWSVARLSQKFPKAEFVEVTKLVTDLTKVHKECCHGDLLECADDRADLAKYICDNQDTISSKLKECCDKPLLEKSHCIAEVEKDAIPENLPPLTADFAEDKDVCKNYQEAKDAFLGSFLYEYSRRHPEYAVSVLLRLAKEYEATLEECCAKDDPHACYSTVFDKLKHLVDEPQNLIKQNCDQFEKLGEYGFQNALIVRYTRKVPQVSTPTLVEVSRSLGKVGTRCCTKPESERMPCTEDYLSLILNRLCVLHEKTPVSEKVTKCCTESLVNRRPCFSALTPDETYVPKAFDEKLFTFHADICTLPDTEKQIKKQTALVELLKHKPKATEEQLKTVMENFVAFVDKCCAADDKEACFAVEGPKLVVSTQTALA

B1: recombinant human MD2 (rhMD2) (natural protein, UniProt Q9Y6Y9 19-160, looked up)
chain: QKQYWVCNSSDASISYTYCDKMQYPISINVNPCIELKRSKGLLHIFYIPRRDLKQLYFNLYITVNTMNLPKRKEVICRGSDDDYSFCRALKGETVNTTISFSFKGIKFSKGKYKCVVEAISGSPEEMLFCLEFVILHQPNSN
notes: MD2 (myeloid differentiation 2), human, recombinant; also called human recombinant MD2 protein; source: bought: R&D Systems
With B1 the Kd was 81 µM.
